The target in this assay is native mVDAC1-GFP (mouse) (UniProt Q60932). The experiment in a line: cell-based or functional assay.
Sequence of native mVDAC1-GFP (mouse) (Q60932 14-296): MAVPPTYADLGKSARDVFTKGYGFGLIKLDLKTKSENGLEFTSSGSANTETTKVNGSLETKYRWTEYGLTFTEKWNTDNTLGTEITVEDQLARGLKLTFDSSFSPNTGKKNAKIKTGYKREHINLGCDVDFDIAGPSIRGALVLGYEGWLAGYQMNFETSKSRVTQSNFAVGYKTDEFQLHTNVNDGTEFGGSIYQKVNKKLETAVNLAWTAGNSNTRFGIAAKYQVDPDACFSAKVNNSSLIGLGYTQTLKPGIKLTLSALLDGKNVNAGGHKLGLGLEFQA

On to “recombinant HK-I over-expressed in cells (pcDNA3.1-HisA-HK-I) (enzyme)”, for which the apoptotic cell death of cells over-expressing HK-I and mVDAC1-GFP was less than 10%.

These data come from US20120214741A1.
